Laboratory results reported in paper PMC4626678 (2015).
Residue numbers refer to the chain shown, from its start.

T1: trypsin (Bos taurus, UniProt P00760)
T1 chain: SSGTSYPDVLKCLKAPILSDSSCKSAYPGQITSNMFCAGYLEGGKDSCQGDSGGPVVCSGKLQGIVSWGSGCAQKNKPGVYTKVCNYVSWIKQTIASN

B1: HCRG2 (protein)
chain: RGICLEPKVVGPCKARIRRFYYDSETGKCTPFIYGGCGGNGNNFETLHACRGICRA
B2: HCRG1 (protein)
chain: B1 chain with L5S, R16G, I17L, K28E, T30K, G38K, G41K

Assays:
trypsin [1] = molecular target: T1, trypsin; assay: enzyme inhibition (Dixon, BAPNA)
trypsin [2] = molecular target: T1, trypsin; assay: SPR
alpha-chymotrypsin = alpha-chymotrypsin (Bos taurus, UniProt P00766); assay: SPR

Binder	Ki (trypsin [1]) [nM]	Kd (trypsin [2]) [nM]	Kd (alpha-chymotrypsin) [nM]
B1	50	0.68	1.6
B2	28	0.22	1.8
